Laboratory results as given in US20120201792A1, “METHODS AND PRODUCTS FOR MANIPULATING HEMATOPOIETIC STEM CELLS” (The General Hospital Corporation, priority 2000, published 2012).

T1: KIAA0001 receptor (Homo sapiens, UniProt Q15391)
T1 sequence (Q15391 1-338): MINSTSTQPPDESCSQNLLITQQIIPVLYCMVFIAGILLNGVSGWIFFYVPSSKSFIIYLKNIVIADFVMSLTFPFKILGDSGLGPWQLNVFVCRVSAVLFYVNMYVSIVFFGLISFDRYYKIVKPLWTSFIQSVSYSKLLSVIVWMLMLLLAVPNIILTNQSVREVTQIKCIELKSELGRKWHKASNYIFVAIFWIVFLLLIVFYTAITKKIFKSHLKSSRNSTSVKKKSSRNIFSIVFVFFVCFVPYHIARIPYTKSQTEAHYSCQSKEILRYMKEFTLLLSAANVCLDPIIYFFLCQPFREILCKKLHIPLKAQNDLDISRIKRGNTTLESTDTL

T2: SC-GPR (Homo sapiens, UniProt Q15391)
T2 sequence (Q15391 1-338): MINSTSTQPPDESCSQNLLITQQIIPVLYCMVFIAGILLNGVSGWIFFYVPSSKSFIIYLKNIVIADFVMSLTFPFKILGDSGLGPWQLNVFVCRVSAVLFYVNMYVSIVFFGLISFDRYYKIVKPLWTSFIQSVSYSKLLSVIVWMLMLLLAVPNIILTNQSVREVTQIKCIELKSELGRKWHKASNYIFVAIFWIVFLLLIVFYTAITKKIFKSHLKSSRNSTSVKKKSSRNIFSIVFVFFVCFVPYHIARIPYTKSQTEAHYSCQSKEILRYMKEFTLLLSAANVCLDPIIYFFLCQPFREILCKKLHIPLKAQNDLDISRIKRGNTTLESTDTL


Target: T1, KIAA0001 receptor
Assay: not given
Conditions: Chambers et al., 2000 J Biol Chem; cited from earlier work

| Molecule | binding to the receptor and induction of calcium flux |
| --- | --- |
| CC(=O)N[C@H]1[C@@H](OP(=O)(O)OP(=O)(O)OC[C@H]2O[C@@H](n3ccc(=O)[nH]c3=O)[C@H](O)[C@@H]2O)O[C@H](CO)[C@@H](O)[C@@H]1O [UDP-N-acetylglucosamine] | bind to the receptor and induce calcium flux |
| O=C(O)[C@H]1O[C@H](OP(=O)(O)OP(=O)(O)OC[C@H]2O[C@@H](n3ccc(=O)[nH]c3=O)[C@H](O)[C@@H]2O)[C@H](O)[C@@H](O)[C@@H]1O [UDP-glucuronic acid] | bind to the receptor and induce calcium flux |

Target: T2, SC-GPR
Assay: Intracellular calcium flux (Fura-2) in Cos-7 cells expressing SC-GPR
Conditions: Fura-2 loaded cells expressing SC-GPR, fluorescence ratio F340/F380

| Molecule | calcium flux / activation of SC-GPR expressing cells |
| --- | --- |
| Nc1ncnc2c1ncn2[C@@H]1O[C@H](COP(=O)(O)OP(=O)(O)OP(=O)(O)O)[C@@H](O)[C@H]1O [ATP] | failed to result in activation |
| CCCCC/C=C\C[C@@H](O)/C=C/C=C/C=C\[C@@H](O)CCCC(=O)O [LTB4] | failed to result in activation |
| CCCCCCCCCCCCCCCCOC[C@H](COP(=O)([O-])OCC[N+](C)(C)C)OC(C)=O [PAF] | failed to result in activation |
| IL-8: known chemokine screened as potential SC-GPR ligand | failed to result in activation |
| MCP 1: known chemokine screened as potential SC-GPR ligand | failed to result in activation |
| MCP 3: printed as "MCP 1, 3, 4"; known chemokine screened | failed to result in activation |
| MCP 4: printed as "MCP 1, 3, 4"; known chemokine screened | failed to result in activation |
| MIP1a: known chemokine screened as potential SC-GPR ligand | failed to result in activation |
| PF4: known chemokine screened as potential SC-GPR ligand | failed to result in activation |
| RANTES: known chemokine screened as potential SC-GPR ligand | failed to result in activation |
| SDF-1: known chemokine screened as potential SC-GPR ligand | failed to result in activation |
| TARC: known chemokine screened as potential SC-GPR ligand (protein) ARGTNVGRECCLEYFKGAIPLRKLKTWYQTSEDCSRDAIVFVTVQGRAICSDPNNKRVKNAVKYLQSLERS | failed to result in activation |
| MIP1b: known chemokine screened as potential SC-GPR ligand (protein) APMGSDPPTACCFSYTARKLPRNFVVDYYETSSLCSQPAVVFQTKRSKQVCADPSESWVQEYVYDLELN | failed to result in activation |
